Earlier results as cited in article PMC3249237.

Biological target: LRP6 E1E2 (Homo sapiens) (UniProt O75581)
Sequence (O75581 20-630): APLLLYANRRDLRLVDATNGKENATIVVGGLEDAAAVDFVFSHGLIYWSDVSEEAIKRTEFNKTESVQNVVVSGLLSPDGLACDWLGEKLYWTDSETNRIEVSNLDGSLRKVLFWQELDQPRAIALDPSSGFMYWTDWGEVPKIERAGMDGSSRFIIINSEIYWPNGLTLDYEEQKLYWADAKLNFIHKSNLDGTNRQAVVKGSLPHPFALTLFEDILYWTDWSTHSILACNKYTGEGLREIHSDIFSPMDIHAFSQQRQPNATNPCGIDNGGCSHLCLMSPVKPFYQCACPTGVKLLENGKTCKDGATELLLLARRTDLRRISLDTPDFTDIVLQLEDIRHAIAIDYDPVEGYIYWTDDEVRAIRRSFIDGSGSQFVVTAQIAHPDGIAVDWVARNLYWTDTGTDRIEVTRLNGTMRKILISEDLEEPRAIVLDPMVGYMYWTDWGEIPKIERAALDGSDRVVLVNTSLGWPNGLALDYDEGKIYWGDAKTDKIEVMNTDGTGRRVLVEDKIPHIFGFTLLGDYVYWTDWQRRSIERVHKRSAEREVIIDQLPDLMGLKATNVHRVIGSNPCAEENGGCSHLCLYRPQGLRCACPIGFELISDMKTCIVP

Sequence of DKK1 (O94907 32-266): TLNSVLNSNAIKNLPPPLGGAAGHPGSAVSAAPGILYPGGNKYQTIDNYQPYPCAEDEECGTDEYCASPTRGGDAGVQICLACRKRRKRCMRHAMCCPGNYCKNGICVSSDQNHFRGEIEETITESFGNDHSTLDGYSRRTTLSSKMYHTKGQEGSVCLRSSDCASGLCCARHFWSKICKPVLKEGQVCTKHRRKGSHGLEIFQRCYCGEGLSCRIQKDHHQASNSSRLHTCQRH

- Kd: 0.064 µM
Substance: DKK1 (from UniProt O94907)
